Numbering of substitutions follows the chain as printed. Numbers in names are those of the source.
How the values were obtained:
[1] = biological target: SAS-6 coiled coil (CC interface) (Caenorhabditis elegans) (UniProt O62479); conditions: cited from earlier work
FP = biological target: the molecule itself; experiment: FP
[2] = biological target: the molecule itself; experiment: fluorescence polarisation; 1,5-IAEDANS on C100 of CeSAS-6N; polarisation against protein concentration in PBS; fit of an ideal self-association model; monomer to NN dimer; three independent experiments
[3] = biological target: the molecule itself; experiment: SEC; analytical SEC, Superdex 75 10/300 GL, PBS (20 mM sodium phosphate pH 7.0, 150 mM NaCl, 2 mM DTT); different protein concentrations, up to 10 mg/ml; self-association

In the case of “SAS-6 coiled coil (CC interface) (from UniProt O62479)”, the Kd [1] is given as 1000 nM.

B1: CeSAS-6N S123E variant (domain or fragment, C. elegans, UniProt O62479 1-168, looked up)
chain: MTSKIALFDQTLIASLLQPLSLNQPDFKAYKTKVKLKISEQRNETSGEKELKFEISRSDDFEFLFSETLNNEKYQILARDHDLTVDFDAFPKVIIQHLLCKNIVKNLEEDGEVDARKKAGYHEIADPGKPTEINIILDAEKNFCSFELFSKTPISKGKIFSIKLHAVR
modifications: 1,5-IAEDANS conjugated to C100 (fluorescence polarisation samples)
notes: SAS-6, C. elegans, N-terminal domain, amino acids 1-168, with S123E; source: E. coli BL21 (DE3), purified (His-Trap HP, thrombin cleavage, Sephadex G75 SEC); not shown: His6, N-terminal, cleaved
With B1 the Kd (FP) was 48 µM and the “fold increase of NN affinity against CeSAS-6N WT” value [2] was ~2 fold.

B2: C. elegans SAS-6 N-terminal domain, wild type (CeSAS-6N WT, amino acids 1-168) (domain or fragment, UniProt O62479 1-168, looked up)
chain: B1 chain with E123S
modifications: 1,5-IAEDANS conjugated to C100 (fluorescence polarisation samples)
notes: spindle assembly abnormal protein 6 (SAS-6), C. elegans, N-terminal domain, amino acids 1-168; Samples for NMR were isotopically labelled (15N) and carried no fluorophore; also called WT CeSAS-6N; source: E. coli BL21 (DE3), purified (His-Trap HP, thrombin cleavage, Sephadex G75 SEC); not shown: His6, N-terminal, cleaved
In the case of B2, the Kd [2] is reported as ~100 µM.

B3: CeSAS-6N-CC Δ103–130 (domain or fragment, C. elegans, UniProt O62479 1-215, looked up)
chain: MTSKIALFDQTLIASLLQPLSLNQPDFKAYKTKVKLKISEQRNETSGEKELKFEISRSDDFEFLFSETLNNEKYQILARDHDLTVDFDAFPKVIIQHLLCKNTEINIILDAEKNFCSFELFSKTPISKGKIFSIKLHAVRGDHLISHLLKICSSQAVKLSTFYKSADELASLRQKCGDLEKQVEKLS
notes: source: E. coli BL21 (DE3), purified (His-Trap HP, thrombin cleavage, Sephadex G75 SEC); not shown: His6, N-terminal, cleaved
In the case of B3, the “stoichiometry N” value [3] is reported as 2.

B4: C. elegans SAS-6 N-terminal domain plus a short stretch of the coiled coil, wild type (CeSAS-6N-CC WT, amino acids 1-215) (domain or fragment, UniProt O62479 1-215, looked up)
chain: MTSKIALFDQTLIASLLQPLSLNQPDFKAYKTKVKLKISEQRNETSGEKELKFEISRSDDFEFLFSETLNNEKYQILARDHDLTVDFDAFPKVIIQHLLCKNIVKNLEEDGEVDARKKAGYHSIADPGKPTEINIILDAEKNFCSFELFSKTPISKGKIFSIKLHAVRGDHLISHLLKICSSQAVKLSTFYKSADELASLRQKCGDLEKQVEKLS
notes: SAS-6, C. elegans, N-terminal domain plus a short stretch of the coiled coil, amino acids 1-215; Forms a dimer through the coiled coil (calculated mass of the dimer 48.8 kDa) that assembles further through the NN interface; also called WT CeSAS-6_(N-CC); source: E. coli BL21 (DE3), purified (His-Trap HP, thrombin cleavage, Sephadex G75 SEC); not shown: His6, N-terminal, cleaved
B4: binds [3].

Source: PMC6401066, “A dynamically interacting flexible loop assists oligomerisation of the Caenorhabditis elegans centriolar protein SAS-6” (Scientific Reports, 2019)
